Laboratory results taken from the supplement of paper PMC12042874.
± gives the uncertainty stated by the source.

Assay: amyloid nucleation score (Sup35N fusion, yeast selection) (log enrichment); library NNK1; higher = more nucleation; inactive = no reads after selection
In short: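 Peptides of 20 random codons fused to Sup35N were expressed in psi-negative yeast, induced 24 hours with 100 μM copper sulfate, then grown 7 days at 30°C on medium lacking adenine and uracil. Input and output plasmid inserts were Illumina-sequenced. Nucleation score is the DiMSum log enrichment of output over input reads, centred on the mode score of non-aggregating sequences, excluding sequences with under 100 input reads. Random libraries had three technical output replicates.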

Row | Substance | amyloid nucleation score
1 | MILWPS | 1.64 ± 0.16
2 | MIMDVVKGFVFRSSINSKRY | 3.27 ± 0.088
3 | MINHSEPQHCMYV | 0.466 ± 0.9
4 | MISGPNFEVYRLAVINGRSW | 0.848 ± 0.58
5 | MITSDKIGSQWLQCRLKVAC | -0.43 ± 0.53
6 | MITSR | 1.11 ± 0.53
7 | MIVGGNLEEIVNHCYFCVER | 0.511 ± 0.24
8 | MIVILTGLLSTNGNLS | 1.64 ± 0.39
9 | MKAVELSPLKYTCLAN | 0.313 ± 0.74
10 | MKFDYFRRC | -0.471 ± 0.5
11 | MKFGGLSG | -0.171 ± 0.47
12 | MLANSLFFT | -1.23 ± 1.6
13 | MLCVGKA | -1.16 ± 0.64
14 | MLEDNLRVTTWPY | -0.407 ± 0.39
15 | MLFGC | -0.003 ± 0.41
16 | MLFNTHHVYLSTM | 0.987 ± 0.53
17 | MLKGMQSDSLKLNGDVDPCV | 0.175 ± 0.28
18 | MLKILNSSFFDTIVYAYITC | 3.6 ± 0.081
19 | MLKQMSSLGREEIYVF | -0.314 ± 0.99
20 | MLKRVVVLLRPSVRGRVDRV | -0.11 ± 0.28
21 | MLLRRKNIAGGYMVLEVGLS | -0.1 ± 0.31
22 | MLMLSGVF | -0.782 ± 0.53
23 | MLRTSARSQRGNRGLAKMGF | -1.87 ± 2.7
24 | MLSKIFAHYSWSQAVTRAWG | 1.75 ± 0.58
25 | MLSYQR | inactive
26 | MLVCILSVFDKNPR | 2.78 ± 0.11

Row | Substance | amyloid nucleation score
27 | MLVFNNFEPLFLFVSTWTCQ | 7.11 ± 0.06
28 | MMDNLVYQRYTCTF | 0.448 ± 0.79
29 | MMGASGFF | -0.14 ± 0.32
30 | MMKSRLDPCDNDNFFGRVSH | -0.257 ± 0.85
31 | MMLSGFDIIYGIALCPLHVQ | -0.14 ± 0.3
32 | MMLSVCISKLTFLVIRDLLV | 0.459 ± 0.23
33 | MMPYQSWDESSSCEDTLKVT | 0.453 ± 0.35
34 | MMTACLFIIF | 5.925 ± 0.057
35 | MNFDNGDFYWFVTRIISITC | 0.99 ± 0.19
36 | MNGSNRSCLFFCIGCVMPAW | 7.5 ± 0.081
37 | MNKIITRTRSMATSDSTRHS | 0.052 ± 0.67
38 | MNKLYITA | 0.035 ± 0.84
39 | MNKWSG | 1.4 ± 0.63
40 | MNMSKRFLRKLCERSRMPNR | 0.21 ± 0.61
41 | MNNKDDAVYVEHL | 0.072 ± 0.23
42 | MNPGG | -0.026 ± 0.21
43 | MNQLTFRTNRPPSTASVFAR | 1.01 ± 0.61
44 | MNRYFFYLIRVFLRGYH | -0.094 ± 0.64
45 | MNYFVMSHSNKLDASLCWRR | 1.52 ± 0.25
46 | MNYRQLL | 0.177 ± 0.7
47 | MPCRARVRDNSLSWTEHTNC | -0.248 ± 0.62
48 | MPGRNLRLNKVR | 0.273 ± 0.4
49 | MQFNVSWRNGWSRWIGVSDV | 6.519 ± 0.054
50 | MQIMRRIMWYDNSKVSF | -0.177 ± 0.2
51 | MRFKRRSGFGELGMFAFTPL | -0.628 ± 0.5
52 | MRGYPENKLSRSCQCRMRRY | -0.213 ± 0.74

Row | Substance | amyloid nucleation score
53 | MRLERTNRGSAPWTLYYNQR | 1.09 ± 0.17
54 | MRLIVNSFTVGYEPRISWYV | 1.22 ± 0.24
55 | MRSGTVYMVYLVHLKSFKWL | -0.265 ± 0.68
56 | MRWIVWYVIS | -0.859 ± 1.4
57 | MSALARVMLSMRYRIGT | -0.395 ± 1.1
58 | MSDCPACGCSCHRSKLISGF | -0.414 ± 0.5
59 | MSDKSTWYC | 0.157 ± 0.61
60 | MSEVTMGLRTMFVIFNR | 2.79 ± 0.1
61 | MSFDGVEYRTCNVYVSVTWG | -0.133 ± 0.77
62 | MSFSCWFLS | 0.445 ± 0.88
63 | MSGAESYLHLDLCRVTGIAS | -0.24 ± 0.35
64 | MSHFCLSLGAAASMNPLQLG | -0.309 ± 1.1
65 | MSLMSPAYNATNYWAVWRHK | -0.029 ± 0.27
66 | MSRFLTLMHFERNFV | 0.566 ± 0.42
67 | MSTVFADLR | -0.292 ± 0.29
68 | MSYRD | -0.995 ± 1.7
69 | MTYITTGSSKYEGYKFTCMT | 0.502 ± 0.51
70 | MVAMVNT | -0.087 ± 0.28
71 | MVFFTCSEMDVYMWRGYFNY | -0.727 ± 0.28
72 | MVGNIYSSPFYPRYSLTNGT | -0.161 ± 0.83
73 | MVGRVARRVTMSVCSAVSGV | -0.237 ± 0.45
74 | MVMFHSSFLIDDTWICWNPF | 0.255 ± 0.47
75 | MVSLDWTSQLGR | 2.18 ± 0.54
76 | MVSNAGDIPMRRLESLRLLR | 0.748 ± 0.53
77 | MVSPPLNTSIYLIPCSSLCD | -0.407 ± 0.25
78 | MVVVLLVD | -0.438 ± 0.9

Row | Substance | amyloid nucleation score
79 | MVVWWRHKVLKGHWL | -0.189 ± 0.61
80 | MWVFKTFCRRQRASVPNSLG | 0.034 ± 0.27
81 | MWVNLVWTAFLYKSILCRVF | 0.38 ± 1.2
82 | MWWCGSHSFSFYFRLRSDWR | 0.829 ± 1
83 | MYGLVLCIYVSHVVR | 1.54 ± 0.43
84 | MYIKRTGQTGWAVGGSRTPR | 1.11 ± 0.65
85 | MYISYSLNKTPIVFAPCTVH | -0.018 ± 0.48
86 | MYQVHTVSTVKIEMAYHAQG | 1.67 ± 0.26
87 | MYRDDAGFEGMF | 1.19 ± 0.61
88 | MYRQTEGLVRFKGRGPFKVE | 0.355 ± 0.4
89 | MYSISCIVNY | 2.56 ± 0.15
90 | MYTSDHNSGVASMCIVVGFF | 3.76 ± 0.08
91 | NACIPQVFCGSLLKFALQLW | 3.28 ± 0.088
92 | NALYSWAPLDCIMPRIVS | 0.299 ± 0.47
93 | NANINFSNTMQADVL | 0.116 ± 0.31
94 | NARVILCVVFILGAMTRLGL | -0.549 ± 0.65
95 | NASSLVRTDCHSMRKESSMR | 0.052 ± 0.4
96 | NASYVNIKYRNRGN | 4.53 ± 0.082
97 | NCCCEAKTWRLIDCIITIVI | 0.711 ± 0.13
98 | NCDLECQSLRAYGLSCKKSR | -0.22 ± 0.43
99 | NCERVTDYELIRGSSILKVV | 0.311 ± 0.73
100 | NCFIKDAMVMSSRMYSGNMI | inactive
101 | NCFRFCRQLLTAEDDVMCLP | 0.117 ± 0.81
102 | NCGNMAATSFVNEIYL | inactive
103 | NCGSVFFYGPIVGFHRLGLV | 0.967 ± 0.44
104 | NCKFEKSLKPPHGPYNGNQY | 0.292 ± 0.42

Row | Substance | amyloid nucleation score
105 | NCLDGGMFRYIKVYRSRYSS | 0.209 ± 0.2
106 | NCTKSSWYGCYT | -0.287 ± 0.35
107 | NCVTL | inactive
108 | NDGPNSIIYFYMIFI | 4.58 ± 0.12
109 | NDRLLMVRYILHFESNAMTW | 0.794 ± 0.38
110 | NDSACIRRSIGSHSFSSCSV | 0.766 ± 0.84
111 | NDTLGSCLDNSLQSGSWWLR | 0.276 ± 0.39
112 | NDTNI | 0.175 ± 1.1
113 | NDYNWKYGFLRWCVLYEVM | 0.117 ± 0.4
114 | NEDAPFMVTSKVVSGT | 0.176 ± 0.34
115 | NEFEVCG | 0.108 ± 0.25
116 | NFAWYNSTQFITTCRVTYSE | 1.86 ± 0.17
117 | NFGLRRYSNARMGMDCGWLC | -0.011 ± 0.45
118 | NFIRKPFGFIY | -0.282 ± 1.7
119 | NFIVVMCTIMNLCYKAQPNE | inactive
120 | NFLFCFCHYCIWKVCTVAGC | -0.073 ± 0.45
121 | NFMEYYKIRVMCWANR | 0.616 ± 0.29
122 | NFMYTYTVTLRRGYGEVSCA | -0.071 ± 0.6
123 | NFNCLVTDAFYFRGWKCLDR | 4.9 ± 0.12
124 | NFNFFRRCLGSPYNRPEWID | -0.066 ± 0.42
125 | NFPLVSFFTNCSNKE | inactive
126 | NFPVPLRNDLKLAFMQNLNS | -0.531 ± 0.3
127 | NFRGFLVTDPLSSS | -0.842 ± 0.42
128 | NFRNSLRSV | 1.24 ± 0.59
129 | NFRSFYKQF | -0.451 ± 1.4
